This passage reports endothelial cell migration (scratch-wound closure) in the presence of 15µg/ml RDD protein, as compared to untreated control culture results from patent publication EP2353607A1.

The target of experiment [1] is integrin α5β1 on cultured endothelial cells (species of the cells not stated). The experiment can be described thus: cell-based or functional assay.
Experiment [2] addresses integrin αvβ3 on cultured endothelial cells (species of the cells not stated). The experiment can be described thus: cell-based or functional assay.

“recombinant disintegrin domain (RDD) of metargidin (human ADAM-15)”: the endothelial cell migration (scratch-wound closure) in the presence of 15µg/ml RDD protein, as compared to untreated control culture in experiment [1] and in experiment [2] was 54.5% each time.
